Reference: US11312781B2, “Antigen binding molecules that bind LIGHT” (Capella Bioscience Ltd., priority 2018, dated 2022)

Key:
[1] = target: T1, DcR3 binding to membrane LIGHT (EL4-LIGHT cells) (Homo sapiens, UniProt O43557); assay: Competition binding of anti-membrane LIGHT antibodies with DcR3-His on EL4-LIGHT cells; settings: mAb at up to 100 nM
T1 construct: expressed in transfected cells; host or cells: EL4 mouse lymphoma cells, stably transduced
Procedure: DcR3 (TNFRSF6B) is a decoy receptor that competes with receptors for ligand binding. DcR3 can bind and neutralise LIGHT with high affinity and TL1A and FasL with lower affinity (Zhan C et al. Structure. 2011, 19:162-71 “Decoy strategies: the structure of TL1A:DcR3 complex”). Stably transduced LIGHT-expressing EL4 cells (mouse lymphoma cell line; EL4-LIGHT) were used for the flow cytometry-based competition-binding analysis.
EL4-LIGHT cells (0.25×10^6) were preincubated with anti-membrane LIGHT mAbs (0-300 nM) for 15 min at 4° C. followed by incubation with DcR3-His tagged (1 nM, Creative BioMart; ref:TNFRSF6B-552H, lot:962512) for 30 min at 4° C. The samples were then incubated with mouse anti-histag antibody (diluted 1:500, Biolegend, cat. no. 652502) for 30 minutes at 4° C., followed by incubation with anti-mouse APC (dil 1:500, BDBiosciences, cat. no. 550826) for 30 minutes at 4° C. The tubes were washed three times after each of the detection antibody stages and flow cytometry analysis was performed. Specific mean fluorescence intensity (MFI) obtained from the binding of DcR3-His to LIGHT on EL4 cells were used to determine the levels of competition binding.

[2] = tested on: DSS-induced colitis in hu-NOG mice; assay: DSS-induced acute colitis in humanized (hu-NOG) mice; format: in vivo, mouse (hu-NOG)
Procedure: The experiments were carried out with the NOD/Shi-scid/IL-2Rγnull immunodeficient mouse strain (NOG) engrafted with CD34+ hematopoietic stem cells isolated from human cord blood as described in Manfroi B et al. (Cancer Res. 2017; 77:1097-1107). The reconstitution of the human immune system in the mice occurred for at least 14 weeks, and hu-mice were used that had at least 25% human CD45+/total CD45 cells. Female hu-NOG mice were randomised into 3 groups (n=10) taking into account the humanization rate and the CD34+ cell donors. All animal studies described in this study have been reviewed and approved by the local ethic committee (CELEAG). Mice were allowed to acclimate to the experimental environment for 5 days prior to the beginning of the experiment. The DSS was administrated for 7 days, from day 2 to 8. The DSS (3%) was added to the drinking water (ad libitum) and freshly renewed every two days.
All treatments started before the DSS-induced colitis. 3B04 variant 16 (5 mg/kg) and the isotype control and anti-TNF (Humira) antibodies (10 mg/kg) were administrated i.p. on days 0, 3, 6, 9. The experiment was terminated on day 12. The following parameters were recorded daily for 12 days: body weight in grams (g); diarrhea and stool consistency; bleeding and mortality. The global clinical score was calculated as follows: […]

[3] = tested on: CMV stimulated human PBMC; assay: Human PBMC antigen specific (CMV) recall response in vitro, cytokines by Luminex; format: cell-based; settings: CMV stimulation, 5 day incubation
Procedure: In order to test the efficacy of anti-LIGHT mAbs on stimulated PBMC a recall antigen CMV (cytomegalovirus) lysate was utilised to stimulate PBMC from human CMV-positive donors (ImmunXperts, Belgium). 200 000 cells per well in RPMI (Thermofisher cat. no. 11875) plus 10% FBS (GIBCO) was added to CMV lysate (Serion immunologics cat. no. BA109VS, final concentration 10 ug/ml) with test mAbs in a volume of 200 ul. After a 5 day incubation at 37C and 5% CO2 the media was recovered by centrifugation and assayed for cytokines by Luminex immunoassay (ThermoFisher).

[4] = tested on: wild type and mutated membrane LIGHT; assay: Alanine scanning mutagenesis of membrane LIGHT and flow cytometry (HEK293FF cells); format: binding, human
Source text: The full length LIGHT gene was synthesized by GeneArt (ThermoFisher Scientific) and cloned into the mammalian expression vector pcDNA 3.1(+). The following Ala mutations were introduced into the LIGHT gene: 30 single amino acid alanine substitutions from F57A to E86A; 2 single amino acid alanine substitutions; G188A, R189A; one serine substitution, A190S; 17 single amino acid alanine substitutions; T191A to V207A and 10 four amino acid alanine substitutions, 60-63, 64-67, 68-71, 72-75, 76-79, 80-83, 84-87, 88-91, 92-95 and 96-99. Constructs were reconstituted according to manufacture instructions, using DEPC-treated and sterile filtered water. Competent TOP10 E. coli cells were transformed with 100 ng of each construct and a single colony from each construct was picked and used to inoculate 10 ml of LB/carb100/glu2% medium and grown overnight at 37° C., 200 rpm. The extraction of the construct DNA was performed using the Qiagen QIAprep Spin Miniprep Kit (250) and the concentration was determined by measuring the O.D. at 260 nm in a spectrophotometer.
HEK293FF cells were cultured in Freestyle™293 expression medium (ThermoFisher scientific cat. no. 12338018) supplemented with 2 mM L-Glutamine. The day of transfection the cells were seeded in a 24-well plate at 0.6×10^6 cells/well. Lipofectamine 2000 (ThermoFisher scientific), 3 μl, was mixed with 50 μl OptiMEM medium (GIBCO) and then added to 50 μl Opti-MEM medium containing 3 ug plasmid DNA and incubated for 20 min at RT to form DNA-Lipofectamine 2000 complexes which were then added to the HEK293FF cells and incubated at 37° C., 5% CO2 for 24 hours. For each construct, in duplicate, 0.60×10^6 cells/well were used in a 96 well round bottom plate. Cells were centrifuged for 3 minutes at 300×g at 4° C., the supernatant discarded and the cells washed with 150 μl FACS buffer (0.5% FBS in phosphate buffered saline). This process was repeated 3 times. For each construct, […] cells/well were incubated with anti-LIGHT antibodies at the EC50 concentration and with positive controls of anti-LIGHT mAb MAB664 (R&D Systems), mAb F19 (EP2292663) or LTBR-Fc (R&D Systems), in a final volume of 50 μl/well for 30 min at 4° C., with shaking. The wells were washed 3 times as above and 50 μl/well of goat anti-human IgG FITC (1:1500 dilution in FACS buffer, SIGMA F9512-2ML) or goat anti-mouse APC (1/500 dilution in FACS buffer, BDBioscience 550826), as appropriate, was added to the wells and incubated for 30 min at 4° C. protected from the light, with shaking. The cells were then washed as above, resuspended in 100 μl of FACS buffer and binding of the antibodies to the constructs was measured using flow cytometry and a total of 10,000 cells were acquired for each sample. Controls of buffer and secondary antibody only as well as HEK293FF non transfected cells were also used.
All of the mAbs of this invention show a similar profile in that their epitope is located at amino acids 188-197 of LIGHT. […] The epitope of the mAbs of this invention defined by alanine scanning mutagenesis are residues 188-197 of LIGHT. This is visually depicted in FIG. 8 utilising a 3D visualisation of the LIGHT trimer from the crystal structure of LIGHT from Liu et al. (Structure 22: 1252-62; 2014). This would result in the mAbs binding to the “tip” of the LIGHT trimer and explaining the 1:1 binding. The impact of this epitope would result in […] less dosing of mAb 3B04 being required to neutralise membrane LIGHT compared to, for example, mAbs F19 and F23 (of EP2292663) which bind both soluble and membrane LIGHT equally and bind LIGHT in the ratio 3:1.

T1 sequence (O43557 whole entry): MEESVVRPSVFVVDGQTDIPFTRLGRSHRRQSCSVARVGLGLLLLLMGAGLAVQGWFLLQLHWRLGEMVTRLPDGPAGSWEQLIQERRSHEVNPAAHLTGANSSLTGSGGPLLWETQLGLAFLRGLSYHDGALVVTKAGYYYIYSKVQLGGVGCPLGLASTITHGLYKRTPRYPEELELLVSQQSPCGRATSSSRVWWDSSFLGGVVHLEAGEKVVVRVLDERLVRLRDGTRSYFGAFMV

B1: 2E08: parental anti-membrane LIGHT antibody, VL SEQ ID NO 81, VH SEQ ID NO 85; chimeric IgG4 mAb (antibody, listed as Homo sapiens, V domains shown)
VH: QVQMKESGAELVRPGVSVKISCKGSGYTFTDYAIHWVKQSHAKTLEWIGVISTYYGDASYNQKFKGKATMTVDKSSSTAYMELARLTSDDSAIYYCARSRGEYGNYDAMDYWGQGTSVTVSS
VL: DIVLTQSPASLAVSLGQRATISCKASQSVDYDGDSYMNWYQQKPGQPPKLLIYAASNLESGIPARFSGSGSGTDFTLNIHPVEEEDAATYYCQQSNEDPLTFGAGTKLELK
[1]
  Inhibition of DcR3 binding to membrane LIGHT: only partially inhibit

B2: 3B04_var16: deimmunised 3B04 IgG4 variant: 3B04_VL_4 (SEQ ID NO 33) + 3B04_VH_4 (SEQ ID NO 37) (antibody, listed as Homo sapiens, V domains shown)
VH: QVQLVQSGAEVKKPGASVKVSCKASGYTFTDYEMHWVRQAPGQGLEWMGEIDPETGDTAYAQKFQGRVTLTADKSTSTAYMELSSLRSEDTAVYYCSRETDYFFDYWGQGTLVTVSS
VL: DIQMTQSPSSLSASVGDRVTITCRASENIYGALNWYQQKPGKAPKLLIYGATNLAEGVPSRFSGSGSGRDYTLTISSLQPEDFATYYCQNVLTTPWTFGQGTKLEIKR
[2]; 3B04 variant 16 5 mg/kg, Humira 10 mg/kg
  Effect on global clinical score compared to the anti-TNF positive control: significantly superior (p<0.05)
[2]; i.p. days 0, 3, 6, 9, versus IgG control, FIG. 9
  Global clinical score: significant (p<0.05) decrease in global clinical score as early as day 2
[3]; FIG. 11A
  IL-17 production from PBMC: significantly (p<0.05) inhibited
[3]; FIG. 11B
  IFN gamma production from PBMC: significantly (p<0.05) inhibited
[3]; FIG. 11C
  TNF production from PBMC: significantly (p<0.05) inhibited
[3]; FIG. 11D
  IL-6 production from PBMC: significantly (p<0.05) inhibited
[3]; FIG. 11E
  IL-12p70 production from PBMC: significantly (p<0.05) inhibited

B3: LTBR-Fc: LTBR-Fc receptor fusion protein (R&D Systems), positive control in alanine scanning (protein)
chain: SQPQAVPPYASENQTCRDQEKEYYEPQHRICCSRCPPGTYVSAKCSRIRDTVCATCAENSYNEHWNYLTICQLCRPCDPVMGLEEIAPCTSKRKTQCRCQPGMFCAAWALECTHCELLSDCPPGTEAELKDEVGKGNNHCVPCKAGHFQNTSSPSARCQPHTRCENQGLVEAAPGTAQSDTTCKNPLEPLPPEMSGTMLM
modifications: left off: a dimerising Fc or GST
notes: LTBR-Fc receptor fusion protein (R&D Systems), positive control in alanine scanning
[4]; single substitutions F57A to E86A and four amino acid substitutions 60-63 to 96-99
  Binding to LIGHT alanine substitution constructs versus WT LIGHT: no difference in binding
[4]; substitutions G188A to V207A
  Binding to LIGHT amino acid substitution constructs versus WT LIGHT: no difference in binding

B4: 3A07: parental anti-membrane LIGHT antibody, VL SEQ ID NO 97, VH SEQ ID NO 101; chimeric IgG4 mAb (antibody, listed as Homo sapiens, V domains shown)
VH: QVQLQQSGAELVRPGAPVTLSCKASDYTFTDSEIHWVKQTPVHGLEWIGEIDPETGGTAYNQKFKGKATLTADKSSSTAYMELRSLTSEDSAVYYCSRETDYFFDYWGQGTTLTVSS
VL: ENVLTQSPAIMSASPGEKVTMTCSASSSVSYMYWYQQRPGSSPRLLIYDTSNLASGVPVRFSGSGSGTSYSLTISRMEAEDAATYYCQQWSSYPLTFGSGTKLEIK
[1]
  Inhibition of DcR3 binding to membrane LIGHT: only partially inhibit

B5: 3C10: parental anti-membrane LIGHT antibody, VL SEQ ID NO 89, VH SEQ ID NO 93; chimeric IgG4 mAb (antibody, listed as Homo sapiens, V domains shown)
VH: EVQLQQSGAELVRPGASVTLSCKASDYTFTDSEIHWVKQTPVHGLEWIGEIDPETGGTAYNQKFKGKATLTADKSSSTAYMELRSLTSEDSAVYYCSRETDYFFDYWGQGTTLTVSS
VL: DVVMTQTPAIMSASPGEKVTMTCSASSSVSYMYWYQQKPGSSPRLLIYDTSNLASGVPVRFSGSGSGTSYSLTISRMEAEDAATYYCQQWSSYPLTFGAGTKLELK
[1]
  Inhibition of DcR3 binding to membrane LIGHT: only partially inhibit
